Results as given in patent US20230322944A1 (published 2023).
Changes are numbered by the printed parent chain.

T1: human CD122 His tagged (human, UniProt P14784 27-240)
T1 construct: also called hCD122
T1 sequence: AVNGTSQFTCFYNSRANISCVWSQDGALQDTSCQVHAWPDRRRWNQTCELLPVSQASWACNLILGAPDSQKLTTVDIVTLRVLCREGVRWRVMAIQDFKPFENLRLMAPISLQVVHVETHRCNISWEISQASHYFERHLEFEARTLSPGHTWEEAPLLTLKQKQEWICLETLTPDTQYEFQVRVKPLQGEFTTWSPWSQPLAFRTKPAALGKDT

T2: cynomolgus and/or rhesus monkey CD122 His tag (rhesus monkey, UniProt Q38J85 27-240 (cynomolgus entry))
T2 construct: also called rhesus CD122; rhCD122
T2 sequence: T1 sequence with Q7R, A66T, T74A, L83M, V92M, E127K, L158M

B1: FAB03 (Fab, V domains shown)
VH: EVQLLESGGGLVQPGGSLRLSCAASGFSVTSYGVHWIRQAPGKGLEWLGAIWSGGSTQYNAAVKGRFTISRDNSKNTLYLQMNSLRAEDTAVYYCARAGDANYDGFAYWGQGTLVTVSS
VL: DIQMTQSPSSLSASVGDRVTITCQASSSVSFMYWYQQRPGKAPRLLIYDTSNLASGVPSRFSGSGSGTSYTFTISSLQPEDIATYYCQQWDTYPLTFGQGTKVEIK
notes: F11VH-1 + F11VK-123; Human monovalent Fab
B2: FAB09 (Fab, V domains shown)
VH: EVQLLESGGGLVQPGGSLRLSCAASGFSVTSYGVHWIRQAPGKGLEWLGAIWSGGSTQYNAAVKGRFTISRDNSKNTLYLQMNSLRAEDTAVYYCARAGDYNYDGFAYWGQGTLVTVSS
VL: B1 VL
notes: F11VH-13 + F11VK-123; Human monovalent Fab
B3: FAB12 (Fab, V domains shown)
VH: EVQLLESGGGLVQPGGSLRLSCAASGFTVTSYAVHWVRQAPGKGLEWLGVIWSGGSTDYNAAFISRLTISKDNSKNTVYFQMNSLRAEDTAVYYCARAGDYNYDGFAYWGQGTLVTVSS
VL: B1 VL
notes: F11VH-23 + F11VK-123; Human monovalent Fab

Biological target: T1, human CD122 His tagged
Experiment: BIACORE SPR, Fab on human CD122
Experimental: (§1) A mouse anti-human antibody (CH1 specific) was immobilized on a CMS Sensor Chip to a level of 2000 RU in acetate buffer at pH 4.5 using amine coupling following the Wizard instructions for two channels. One channel was used for background signal correction. The standard running buffer HBS-EP pH 7.4 was used. Regeneration was performed with a single injection of 10 μl of 10 mM Glycine at pH 1.5 at 20 μl/minute. IgG samples were injected for 2 minutes at 50 nM at 30 μl/min followed by and off-rate of 60 seconds. The monomeric antigen (human CD122 His tagged or cynomolgus and/or rhesus monkey CD122 His tag) was injected in two fold serial dilutions from 100 nM down to 3.1 nM, for 2 minutes at 30 μl/min followed by an off-rate of 300 seconds. The obtained sensorgrams were analyzed using the BIACORE® 3000 evaluation (BIAevaluation) software. The KD was calculated by simultaneous fitting of the association and dissociation phases to a 1:1 Langmuir binding model.

Kd [nM] | Binder
38.6 | B1
72.5 | B2
21.8 | B3

Biological target: T2, cynomolgus and/or rhesus monkey CD122 …
Experiment: BIACORE SPR, Fab on rhesus CD122
Experimental: as §1

Kd [nM] | Binder
20.6 | B1
36.5 | B2
19.5 | B3
